{
  "source": "paper PMC4299599",
  "about": "“Quantification of cytosolic interactions identifies Ede1 oligomers as key organizers of endocytosis” (Molecular Systems Biology, 2014)",
  "conditions_in_all_cases": "partners not purified",
  "key": {"Bbc1": {"target": "T1, Bbc1 (S. cerevisiae, UniProt P47068 1-1157)", "T1 construct": "Bbc1, S. cerevisiae; also called Bbc1-3myeGFP; Bbc1-3mCherry; source: chromosomally tagged at the endogenous locus, in the cytoplasm of living S. cerevisiae cells", "T1 sequence (looked up)": "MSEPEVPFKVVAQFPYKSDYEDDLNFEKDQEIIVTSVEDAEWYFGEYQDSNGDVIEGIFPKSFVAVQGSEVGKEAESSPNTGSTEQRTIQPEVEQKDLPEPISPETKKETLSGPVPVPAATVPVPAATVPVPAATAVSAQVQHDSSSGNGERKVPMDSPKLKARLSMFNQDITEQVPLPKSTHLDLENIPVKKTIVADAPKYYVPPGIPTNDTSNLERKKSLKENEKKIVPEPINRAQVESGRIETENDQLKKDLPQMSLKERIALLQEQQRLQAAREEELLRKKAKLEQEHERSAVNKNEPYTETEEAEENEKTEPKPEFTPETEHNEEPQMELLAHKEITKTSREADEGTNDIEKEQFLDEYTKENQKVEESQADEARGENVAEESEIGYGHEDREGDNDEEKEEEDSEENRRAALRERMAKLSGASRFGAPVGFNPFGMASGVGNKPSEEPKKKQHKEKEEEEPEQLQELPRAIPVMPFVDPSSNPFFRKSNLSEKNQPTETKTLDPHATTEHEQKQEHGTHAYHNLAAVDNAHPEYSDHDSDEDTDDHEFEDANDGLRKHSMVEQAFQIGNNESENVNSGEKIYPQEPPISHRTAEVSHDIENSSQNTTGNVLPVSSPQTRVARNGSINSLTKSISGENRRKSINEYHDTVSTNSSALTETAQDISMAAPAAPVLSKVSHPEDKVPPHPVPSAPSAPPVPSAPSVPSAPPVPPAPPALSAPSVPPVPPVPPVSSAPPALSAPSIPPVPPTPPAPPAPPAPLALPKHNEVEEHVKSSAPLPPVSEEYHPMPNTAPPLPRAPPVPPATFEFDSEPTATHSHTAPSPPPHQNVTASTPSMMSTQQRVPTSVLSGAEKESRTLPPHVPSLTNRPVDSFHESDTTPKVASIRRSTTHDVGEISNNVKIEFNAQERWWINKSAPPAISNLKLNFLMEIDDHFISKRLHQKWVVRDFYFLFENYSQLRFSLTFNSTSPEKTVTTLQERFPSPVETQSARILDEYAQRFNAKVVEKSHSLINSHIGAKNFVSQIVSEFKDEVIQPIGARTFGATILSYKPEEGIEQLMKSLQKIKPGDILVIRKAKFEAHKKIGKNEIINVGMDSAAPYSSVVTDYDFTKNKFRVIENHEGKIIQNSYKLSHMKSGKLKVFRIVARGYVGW", "assay": "fluorescence cross-correlation spectroscopy (FCCS); in the cytoplasm of living yeast cells; first-named protein green (3myeGFP or 1myeGFP; eGFP for Don1), second red (3mCherry); self-interaction in diploid strains with one allele of each colour; apparent or effective KD (Kdeff) from single-cell measurements; only Kdeff values < 1000 nM are shown; values for self-interactions are upper limits"}, "Sla1": {"target": "T2, Sla1 (S. cerevisiae, UniProt P32790 1-1244)", "T2 construct": "Sla1, S. cerevisiae; also called Sla1-3myeGFP; Sla1-3mCherry; source: chromosomally tagged at the endogenous locus, in the cytoplasm of living S. cerevisiae cells", "T2 sequence (looked up)": "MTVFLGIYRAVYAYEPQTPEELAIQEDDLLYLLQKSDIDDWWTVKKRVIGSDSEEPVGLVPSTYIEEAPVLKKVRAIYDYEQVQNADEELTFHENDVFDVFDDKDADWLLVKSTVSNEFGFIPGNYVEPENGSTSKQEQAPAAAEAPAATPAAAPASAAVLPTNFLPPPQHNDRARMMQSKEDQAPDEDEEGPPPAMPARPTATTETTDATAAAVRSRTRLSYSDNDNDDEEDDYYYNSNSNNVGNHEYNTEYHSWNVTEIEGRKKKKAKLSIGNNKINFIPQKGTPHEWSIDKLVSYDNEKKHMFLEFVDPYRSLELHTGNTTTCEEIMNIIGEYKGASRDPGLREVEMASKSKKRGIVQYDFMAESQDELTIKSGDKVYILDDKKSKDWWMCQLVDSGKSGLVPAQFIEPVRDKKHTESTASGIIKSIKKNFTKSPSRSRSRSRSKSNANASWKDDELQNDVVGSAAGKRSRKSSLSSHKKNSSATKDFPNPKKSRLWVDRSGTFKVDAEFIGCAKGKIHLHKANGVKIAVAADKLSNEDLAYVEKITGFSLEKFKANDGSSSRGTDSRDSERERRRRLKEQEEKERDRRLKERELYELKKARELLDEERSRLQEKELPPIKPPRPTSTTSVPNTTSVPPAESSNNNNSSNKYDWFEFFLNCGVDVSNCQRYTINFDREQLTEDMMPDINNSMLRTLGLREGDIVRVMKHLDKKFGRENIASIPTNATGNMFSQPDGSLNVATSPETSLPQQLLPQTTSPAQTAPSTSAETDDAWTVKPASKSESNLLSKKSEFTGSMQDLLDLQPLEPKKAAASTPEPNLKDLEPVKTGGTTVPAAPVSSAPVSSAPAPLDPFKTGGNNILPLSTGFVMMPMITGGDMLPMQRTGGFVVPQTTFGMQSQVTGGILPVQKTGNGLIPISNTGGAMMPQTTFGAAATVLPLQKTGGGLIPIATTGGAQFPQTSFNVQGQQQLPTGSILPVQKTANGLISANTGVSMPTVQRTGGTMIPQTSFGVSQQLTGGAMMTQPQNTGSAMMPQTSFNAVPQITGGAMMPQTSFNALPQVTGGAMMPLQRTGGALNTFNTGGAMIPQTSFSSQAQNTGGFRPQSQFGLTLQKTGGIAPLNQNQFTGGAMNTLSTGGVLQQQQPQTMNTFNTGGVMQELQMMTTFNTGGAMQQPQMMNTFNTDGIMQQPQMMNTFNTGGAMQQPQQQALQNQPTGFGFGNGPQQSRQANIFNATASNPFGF", "assay": "fluorescence cross-correlation spectroscopy (FCCS); in the cytoplasm of living yeast cells; first-named protein green (3myeGFP or 1myeGFP; eGFP for Don1), second red (3mCherry); self-interaction in diploid strains with one allele of each colour; apparent or effective KD (Kdeff) from single-cell measurements; only Kdeff values < 1000 nM are shown; values for self-interactions are upper limits"}, "Ste11-3mCherry": {"target": "T3, Ste11-3mCherry (S. cerevisiae, UniProt P23561 1-717)", "T3 construct": "Ste11, S. cerevisiae; negative control of FCCS; source: S. cerevisiae strain Don1-eGFP, Ste11-3mCherry, in living cells", "T3 sequence (looked up)": "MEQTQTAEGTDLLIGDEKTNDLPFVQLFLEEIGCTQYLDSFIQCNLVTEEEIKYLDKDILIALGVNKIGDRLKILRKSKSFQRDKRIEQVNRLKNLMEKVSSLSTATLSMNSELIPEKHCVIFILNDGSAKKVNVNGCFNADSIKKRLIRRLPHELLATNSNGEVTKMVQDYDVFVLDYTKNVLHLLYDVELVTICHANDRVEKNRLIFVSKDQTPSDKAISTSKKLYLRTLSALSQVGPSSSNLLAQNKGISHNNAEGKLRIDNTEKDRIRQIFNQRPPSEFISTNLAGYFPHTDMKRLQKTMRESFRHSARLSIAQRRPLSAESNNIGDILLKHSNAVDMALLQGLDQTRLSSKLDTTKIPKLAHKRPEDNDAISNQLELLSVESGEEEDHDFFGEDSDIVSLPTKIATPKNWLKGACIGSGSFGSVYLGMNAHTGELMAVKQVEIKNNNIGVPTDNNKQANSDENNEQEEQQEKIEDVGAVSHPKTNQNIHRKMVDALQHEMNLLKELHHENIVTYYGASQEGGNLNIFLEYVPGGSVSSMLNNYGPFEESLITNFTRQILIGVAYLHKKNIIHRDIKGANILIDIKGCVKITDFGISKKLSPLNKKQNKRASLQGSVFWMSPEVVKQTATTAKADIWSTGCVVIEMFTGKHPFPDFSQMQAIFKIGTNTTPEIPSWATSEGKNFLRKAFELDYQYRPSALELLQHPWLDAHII", "assay": "fluorescence cross-correlation spectroscopy (FCCS); living yeast cells, observation volume in the cytoplasm; one protein tagged with (3)myeGFP/eGFP and the other with 3mCherry in the same strain; apparent (effective) KD; interactions up to ~1 μM detectable"}, "Rvs167": {"target": "T4, Rvs167 (S. cerevisiae, UniProt P39743 1-482)", "T4 construct": "Rvs167, amphiphysin-like protein, S. cerevisiae; also called Rvs167-1myeGFP; source: chromosomally tagged at the endogenous locus, in the cytoplasm of living S. cerevisiae cells; not shown: 1myeGFP, C-terminal, kept", "T4 sequence (P39743 whole entry)": "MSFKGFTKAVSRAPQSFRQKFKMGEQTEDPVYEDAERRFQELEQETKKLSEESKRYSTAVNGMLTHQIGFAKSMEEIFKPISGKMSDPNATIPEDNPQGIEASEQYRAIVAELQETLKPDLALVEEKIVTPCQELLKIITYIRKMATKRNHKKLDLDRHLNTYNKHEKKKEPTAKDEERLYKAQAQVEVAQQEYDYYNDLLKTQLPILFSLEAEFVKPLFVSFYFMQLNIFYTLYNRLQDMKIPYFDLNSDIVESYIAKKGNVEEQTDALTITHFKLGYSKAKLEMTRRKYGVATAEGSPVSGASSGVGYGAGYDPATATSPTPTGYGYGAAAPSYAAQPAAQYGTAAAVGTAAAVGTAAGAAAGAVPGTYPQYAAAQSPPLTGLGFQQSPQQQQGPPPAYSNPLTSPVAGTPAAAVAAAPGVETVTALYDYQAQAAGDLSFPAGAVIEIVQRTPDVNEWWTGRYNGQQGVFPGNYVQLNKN", "assay": "fluorescence cross-correlation spectroscopy (FCCS); in the cytoplasm of living yeast cells; first-named protein green (3myeGFP or 1myeGFP; eGFP for Don1), second red (3mCherry); self-interaction in diploid strains with one allele of each colour; apparent or effective KD (Kdeff) from single-cell measurements; only Kdeff values < 1000 nM are shown; values for self-interactions are upper limits"}},
  "data": [
    {"binder": "Bzz1 (natural protein, S. cerevisiae, UniProt P38822 1-633, looked up, Bzz1, S. cerevisiae; also called Bzz1-3myeGFP; Bzz1-3mCherry; source: chromosomally tagged at the endogenous locus, in the cytoplasm of living S. cerevisiae cells) MSADLSIGNEIKDSFKETHKWVQNNLKWLKDIEQFYRERAKLEKDYSERLSRLSAEYFNKKSSTSVPISVGDTPTTTPGSIEAAGVVAWNEILSQTDMISKDHDQLSTDFENHVANQLSGLFTKLDMTLSKINGFNNDMVNKKDNIYHELEKAKKDYDEACSTMEMARNRYTKASNDRNKKKLDEKEMEMNKCKNEYLIKINQANRTKDKYYFQDVPEVLDLLQDVNEAKTLFLNDLWLKAASVENDLGANVSKRLQAANSVVKQNKPSLNTAIFIKHNLKNWKEPQDFVYKPSPVWHDDEKFAVPSSLEVEDLRIKLAKAENDYNSLQDKTQNELSKLSTLNKIKHEMKTNEDNINATKFYDTLKEYLNVVSPFTSHETLKLQAEVQIESIQNNVPEEYDLSTDNIDLSKTKKKSGIFSKFKHNILNVDSKPSSGGSTGNGNGGPLHITSLFNTSRRTRLGSAPNNAGEDSDNNSIRTTSTNNTKKTTQNSSDDGKNKVLYAYVQKDDDEITITPGDKISLVARDTGSGWTKINNDTTGETGLVPTTYIRISSAATVKANDRGPAPEVPPPRRSTLPVRTMEAIYAYEAQGDDEISIDPGDIITVIRGDDGSGWTYGECDGLKGLFPTSYCK", "values": [
      {"measurement": "Kd", "setting": "Bbc1", "result": 994, "unit": "nM"},
      {"measurement": "Kd", "setting": "Sla1", "result": 976, "unit": "nM"}
    ]},
    {"binder": "Don1-eGFP (natural protein, S. cerevisiae, UniProt Q05610 1-365, looked up, Don1, S. cerevisiae; negative control of FCCS; source: S. cerevisiae strain Don1-eGFP, Ste11-3mCherry, in living cells) MGKKNRKGKENNAAKTSFLKVENIKNTNSGLELPSQDYTNVEEKESSPKTDFPLITKEHVNTKTDSNILDYPTIGDLVSSVEKLCVLKELKIAFPEVDDTLIKAILIASQGVLEPAFNSLLYYSSPEENTDFALPMKPISVEDYSKINVSEILQREIFDDIEDEFSGQGINGSMVISKIESELSSLAEHIGNISTPGSNREVAESTRNVAVAEGHNTILSNEDSILKGKEKGKEEEKEKGEEKGVNSLKGAAVKVVAKSLKNNRIPVTVKRNEPSNNLFDVLNCDESEEEEEQDVETNTSNQERKNQGGNTEVPEAQRDSADRLPAKDDGGYKSAFGTDSCGLFAADAKDEKKQVHPSRQELSFT", "values": [
      {"measurement": "Kd", "setting": "Ste11-3mCherry", "result": "> 1000", "unit": "nM"}
    ]},
    {"binder": "Rvs161 (natural protein, S. cerevisiae, UniProt P25343 1-265, looked up, Rvs161, amphiphysin-like protein, S. cerevisiae; also called Rvs161-1myeGFP; Rvs161-3mCherry; source: chromosomally tagged at the endogenous locus, in the cytoplasm of living S. cerevisiae cells) MSWEGFKKAINRAGHSVIIKNVDKTIDKEYDMEERRYKVLQRAGEALQKEAKGFLDSLRAVTASQTTIAEVISNLYDDSKYVAGGGYNVGNYYLQCVQDFDSETVKQLDGPLRETVLDPITKFSTYFKEIEEAIKKRDHKKQDFDAAKAKVRRLVDKPAKDASKLPRAEKELSLAKDIFENLNNQLKTELPQLVSLRVPYFDPSFEALIKIQLRFCTDGYTRLAQIQQYLDQQSRDDYANGLLDTKIEELLGQMTSLDICALGIK", "values": [
      {"measurement": "Kd", "setting": "Rvs167", "result": 6, "unit": "nM"}
    ]}
  ]
}
